Measured values reported in patent US20090172832A1 (published 2009).

Molecular target: T1, R. rubrum RUBISCO LSU (RRrbcLSU, product of the RRrbcM gene) (Rhodospirillum rubrum, UniProt Q2RRP5 1-466)
T1 construct: The purified R. rubrum RUBISCO used as blot control is filed under this molecule too; also called R. rubrum RUBISCO protein; 55-kD RUBISCO-like protein
T1 sequence: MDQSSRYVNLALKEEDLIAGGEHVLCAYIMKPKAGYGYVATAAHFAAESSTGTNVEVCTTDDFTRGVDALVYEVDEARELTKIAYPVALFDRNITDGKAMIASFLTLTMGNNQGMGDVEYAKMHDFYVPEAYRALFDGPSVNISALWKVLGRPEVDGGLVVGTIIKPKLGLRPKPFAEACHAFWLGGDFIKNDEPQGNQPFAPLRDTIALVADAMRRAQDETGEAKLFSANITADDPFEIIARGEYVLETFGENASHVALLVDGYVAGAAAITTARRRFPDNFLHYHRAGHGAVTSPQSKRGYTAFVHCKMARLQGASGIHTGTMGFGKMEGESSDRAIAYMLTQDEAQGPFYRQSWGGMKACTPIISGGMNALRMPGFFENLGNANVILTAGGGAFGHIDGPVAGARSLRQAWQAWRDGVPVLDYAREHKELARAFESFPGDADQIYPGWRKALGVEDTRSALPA
Test: SDS-PAGE of crude leaf extract of plant 1074 (Coomassie stain); inferred because SSU did not accumulate

- binding result: no binding
B1: endogenous tobacco RUBISCO small subunit (SSU) (enzyme, Nicotiana tabacum, UniProt P69249 58-180, looked up)
chain: MQVWPPINKKKYETLSYLPDLSQEQLLSEVEYLLKNGWVPCLEFETEHGFVYRENNKSPGYYDGRYWTMWKLPMFGCTDATQVLAEVEEAKKAYPQAWIRIIGFDNVRQVQCISFIAYKPEGY
notes: Endogenous protein in leaf extracts; also called endogenous SSU; tobacco SSU
